From the supplement of paper PMC7125110
± gives the standard error. For some assays here: This sample holds only a part of the variants without activity.

B1: glmS ribozyme (parent)
chain: AUAAAAGCGCCAGAACUACAGAAAUGUAGUUGACGAGGAGGAGGUUUAUCGAAUUUUCGGCGGAUGCCUCCAAA

Assays:
Settings in all cases: with glucosamine-6-phosphate
[1] = variants of: B1; assay: kcat; higher = faster cleavage; RNA array
Method in brief: (§1)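 Tiles of sequenced MiSeq chips were imaged over ~14 h at 37 °C. On them, barcoded ribozyme variants had been transcribed in situ by E. coli RNA polymerase and were tracked via a hybridised Cy3 probe while glucosamine-6-phosphate (40 μM to 10 mM) in HEPES/KCl/Mg(OAc)2 buffer flowed in. Per-tile medians, normalised to baseline and to non-cleaving reference variants, were fit to one- or two-exponential decays for kobs, and weighted Michaelis–Menten fits gave kcat and KM.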

[2] = variants of: B1; assay: self-cleavage kobs at 40 uM GlcN6P; higher = faster cleavage; RNA array
Method in brief: as §1

[3] = variants of: B1; assay: KM; higher = weaker cofactor use; RNA array
Method in brief: as §1

[4] = variants of: B1; assay: self-cleavage kobs at 640 uM GlcN6P; higher = faster cleavage; RNA array
Method in brief: as §1

[5] = variants of: B1; assay: self-cleavage kobs at 2500 uM GlcN6P; higher = faster cleavage; RNA array
Method in brief: as §1

[6] = variants of: B1; assay: self-cleavage kobs at 10000 uM GlcN6P; higher = faster cleavage; RNA array
Method in brief: as §1

[7] = variants of: B1; assay: self-cleavage kobs at 160 uM GlcN6P; higher = faster cleavage; RNA array
Method in brief: as §1

Variant	kcat [1]	self-cleavage kobs at 40 uM GlcN6P [2]	KM [3]	self-cleavage kobs at 640 uM GlcN6P [4]	self-cleavage kobs at 2500 uM GlcN6P [5]	self-cleavage kobs at 10000 uM GlcN6P [6]	self-cleavage kobs at 160 uM GlcN6P [7]
AUAAAAGCGCCAGACAUACAGAAAUGUAGUUGACGAGGAGGAGGUUUAUCGAAUUUUCGGCUGAUGCCUCCAAA [A15C C16A G62U]	< 1e-05 s⁻¹	< 1e-05 s⁻¹					
AUAAAAGCGCCAGACCUACAGAAAUGUAAUUGACGAGGAGGAGGUUUAUCGAAUUUUCGGCGGAUGCCUCCAAA [A15C G29A]	0.0015 ± 0.00014 s⁻¹		6.27 ± 0.87 mM	0.000137 ± 2.3e-05 s⁻¹	0.000429 ± 9.7e-05 s⁻¹	0.000924 ± 0.00012 s⁻¹	
AUAAAAGCGCCAGACCUACAGAAAUGUACUUGACGAGGAGGAGGUUUAUCGAAUUUUCGGCGGAUGCCUCCAAA [A15C G29C]	0.00165 ± 0.00021 s⁻¹	3.67e-05 ± 1e-05 s⁻¹	2.62 ± 0.51 mM	0.000333 ± 4.2e-05 s⁻¹	0.000772 ± 9.9e-05 s⁻¹	0.00135 ± 0.00018 s⁻¹	8.7e-05 ± 1.5e-05 s⁻¹
AUAAAAGCGCCAGACCUACAGAAAUGUAGUUGACGAGGAGGAGGUUUAUCGAAUUUUCGGCGGAUGCCUAAAAA [A15C C70A C71A]	3.7e-05 ± 3.6e-06 s⁻¹		0.0986 ± 0.041 mM				
AUAAAAGCGCCAGACAUACAGAAAUGUAGUUGACGAGGAGGAGGUUUAUCGAAUUUUCGGCGGAUGCCUUUAAA [A15C C16A C70U C71U]	2.86e-05 ± 3.8e-06 s⁻¹				2.89e-05 ± 1.3e-05 s⁻¹		
AUAAAAGCGCCAGACCUACAGAAAUGUAGUUAACGAGGAGGAGGUUUAUCGAAUUUUCGGCGGAUGCCUCCAAA [A15C G32A]	0.00227 ± 0.0006 s⁻¹	4.19e-05 ± 1.9e-05 s⁻¹	3.61 ± 1.4 mM	0.000293 ± 6.8e-05 s⁻¹	0.0012 ± 0.00025 s⁻¹	0.00157 ± 0.00034 s⁻¹	9.83e-05 ± 3.7e-05 s⁻¹
AUAAAAGCGCCAGACCUACAGAAAUGUAGUUGACGAGGAGGAGGUUUAUCGAAUUUUGGGCGGAUGCCUCCAAA [A15C C58G]	0.000128 ± 2.1e-05 s⁻¹			4.09e-05 ± 1.2e-05 s⁻¹	5.08e-05 ± 1.8e-05 s⁻¹	0.000111 ± 1.4e-05 s⁻¹	
AUAAAAGCGCCAGACAUACAGAAAUGUAGUUGACGAGGAGGAGGUUUAUCGAAUUUUCGGCGGAUGCCUCCAAA [A15C C16A]	0.00213 ± 0.00077 s⁻¹	5.77e-05 ± 8.7e-06 s⁻¹		0.000522 ± 8e-05 s⁻¹	0.000888 ± 0.00013 s⁻¹	0.00248 ± 0.00031 s⁻¹	0.000139 ± 3e-05 s⁻¹
AUAAAAGCGCCAGACUUACAGAAAUGUAGUUGACGAGGAGGAGGUUUAUCGAGUAUUCGGCGGAUGCGUCCAAA [A15C C16U A53G U55A C68G]	3.32e-05 ± 6.7e-06 s⁻¹				3.96e-05 ± 1.4e-05 s⁻¹		3.89e-05 ± 1.8e-05 s⁻¹
